In US20230235304:
Changes are numbered by the printed parent chain.

Columns and labels:
[1] = system: T1, CRISPR nuclease variant D535G D535G (synthetic construct); experiment: cell_activity; conditions: PAM 5'-GCTG-3'; HEK293T; averaged over AAVS1, VEGFA, EMX1 targets
T1 sequence: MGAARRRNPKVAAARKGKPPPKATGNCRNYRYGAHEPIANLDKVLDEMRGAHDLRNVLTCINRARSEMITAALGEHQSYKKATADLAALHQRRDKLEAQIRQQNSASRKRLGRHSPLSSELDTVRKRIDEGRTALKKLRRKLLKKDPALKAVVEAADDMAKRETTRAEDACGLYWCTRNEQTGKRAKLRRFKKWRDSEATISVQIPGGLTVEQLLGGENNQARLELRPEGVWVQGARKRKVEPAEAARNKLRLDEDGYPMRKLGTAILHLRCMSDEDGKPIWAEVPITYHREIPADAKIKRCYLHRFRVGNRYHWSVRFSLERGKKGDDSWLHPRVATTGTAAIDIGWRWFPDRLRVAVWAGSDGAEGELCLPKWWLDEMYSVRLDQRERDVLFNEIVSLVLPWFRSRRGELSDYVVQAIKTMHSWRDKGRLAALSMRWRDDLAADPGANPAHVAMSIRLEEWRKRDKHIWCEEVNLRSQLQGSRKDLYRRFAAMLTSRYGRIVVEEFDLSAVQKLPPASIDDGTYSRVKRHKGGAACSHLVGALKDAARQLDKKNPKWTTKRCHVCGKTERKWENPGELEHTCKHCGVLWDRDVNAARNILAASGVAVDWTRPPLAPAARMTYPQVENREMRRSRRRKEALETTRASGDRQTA

[2] = system: T2, CRISPR nuclease variant S511R S511R (synthetic construct); experiment: cell_activity; conditions: PAM 5'-GCTG-3'; HEK293T; averaged over AAVS1, VEGFA, EMX1 targets
T2 sequence: T1 sequence with S511R, G535D

**Q.** Which binding signal (fold indels vs WT) [1] does the source give for “GGUCCCAUCGGAACGGGUUGUGGUUCCGACGGAGGGAUACAUUGGUGGGG / GGAGGGATACATTGGTGGGG / CCCCACCAATGTATCCCTCC [AAVS1 crRNA (Table 5) ; AAVS1 target (Table 5)]” here?
**A.** 3.57

**Q.** What about the binding signal (fold indels vs WT) [2] of the same sequence?
**A.** 3.71
